Measured values from patent US20210388330A1.

B1: Recombinant iduronate-2-sulfatase (IDS), produced in human HT-1080 cells (enzyme)
chain: SETQANSTTDALNVLLIIVDDLRPSLGCYGDKLVRSPNIDQLASHSLLFQNAFAQQAVCAPSRVSFLTGRRPDTTRLYDFNSYWRVHAGNFSTIPQYFKENGYVTMSVGKVFHPGISSNHTDDSPYSWSFPPYHPSSEKYENTKTCRGPDGELHANLLCPVDVLDVPEGTLPDKQSTEQAIQLLEKMKTSASPFFLAVGYHKPHIPFRYPKEFQKLYPLENITLAPDPEVPDGLPPVAYNPWMDIRQREDVQALNISVPYGPIPVDFQRKIRQSYFASVSYLDTQVGRLLSALDDLQLANSTIIAFTSDHGWALGEHGEWAKYSNFDVATHVPLIFYVPGRTASLPEAGEKLFPYLDPFDSASQLMEPGRQSMDLVELVSLFPTLAGLAGLQVPPRCPVPSFHVELCREGKNLLKHFRFRDLEEDPYLPGNPRELIAYSQYPRPSDIPQWNSDKPSLKDIKIMGYSIRTIDYRYTVWVGFNPDEFLANFSDIHAGELYFVDSDPLQDHNMYNDSQGGDLFQLLMP
modifications: mannose-6-phosphate residues on N-linked oligomannose glycans; M6P content 2.56 pmol M6P/pmol protein (Table 3)
B2: CIP-treated dephosphorylated iduronate-2-sulfatase (dpIDS) (enzyme)
chain: B1 chain
modifications: dephosphorylated with acrylic bead-bound calf intestine alkaline phosphatase; M6P content reduced to 0.15 pmol M6P/pmol protein (Table 3)

Tests used:
[1] = target: soluble mannose-6-phosphate receptor (sM6PR); test: Biacore (SPR) analysis of binding to sM6PR, two KD values fitted
[2] = target: soluble mannose-6-phosphate receptor (sM6PR); test: Biacore (SPR), dpIDS compared with untreated IDS

| Binder | KD1 [1] [nM] | KD2 [1] [nM] | fold reduction of binding affinity of KD2 against IDS [2] [fold] |
| --- | --- | --- | --- |
| B1 | 58.2 | 0.813 | – |
| B2 | 32.1 | 5.94 | 7 |
